What was measured:
Experiment in all cases: SPR, BiaCore X-100, TRN1007 captured by goat anti-human IgG on CM5 chip, E2-core as analyte
[1] = biological target: HCV包膜糖蛋白 HCV-E2-core 基因型7a (Hepatitis C virus genotype 7a)
[2] = biological target: HCV包膜糖蛋白 HCV-E2-core 基因型2a (Hepatitis C virus genotype 2a)
[3] = biological target: HCV包膜糖蛋白 HCV-E2-core 基因型4a (Hepatitis C virus genotype 4a)
[4] = biological target: HCV包膜糖蛋白 HCV-E2-core 基因型6a (Hepatitis C virus genotype 6a)

B1: 全人源抗HCV单克隆中和抗体TRN1007 (antibody, V domains shown)
VH: EVQLVQSGAEVKKPGSSVKVSCKASGGSFRSYGFSWVRQAPGQGLEWMGRIIPAANFADYAPKFQDRVTISADKSTSTAYMELKSLRSDDTAVYYCARDQDLSGELTALYYYHGLDVWGQGTTVTVSS
VL: EIVLTQSPGTLSLSPGQRVTLSCRASQSVSNNYIAWYQQKPGQAPRLLISGASSRATGIPDRFSGTGSGTDFTLAISRLEPEDFAVYYCQQYGDSFWTFGQGTKVEIK
**Q.** Which Kd [1] does the source give for B1 here?
**A.** The Kd was 17.8 pM.

**Q.** What about the koff [1] of the same binder?
**A.** The koff was 1.68e-06 s⁻¹.

**Q.** What about the kon [1] of the same binder?
**A.** Its kon is 94400 M⁻¹ s⁻¹.

**Q.** And the Kd [2]?
**A.** The Kd was 1.07 pM.

**Q.** What about the koff [2] of the same binder?
**A.** Its koff is 8.63e-08 s⁻¹.

**Q.** What about the kon [2] of the same binder?
**A.** Its kon is 80500 M⁻¹ s⁻¹.

**Q.** What about the Kd [3] of the same binder?
**A.** Its Kd is 1.59 pM.

**Q.** And the koff [3]?
**A.** The koff was 7.17e-08 s⁻¹.

**Q.** And the kon [3]?
**A.** The kon was 45100 M⁻¹ s⁻¹.

**Q.** What about the Kd [4] of the same binder?
**A.** The Kd was 179 pM.

**Q.** And the koff [4]?
**A.** Its koff is 5.36e-07 s⁻¹.

**Q.** What about the kon [4] of the same binder?
**A.** The kon was 2990 M⁻¹ s⁻¹.

— CN107286237A
